Key:
[1] = biological target: T1, CCR4 (Homo sapiens, UniProt P51679); assay: Chemotaxis assay (48-well microchemotaxis chamber) of HEK293 cells transfected with CCR4; assay type: cell-based; conditions: for chemotaxis induced after PTX pretreatment: CCR4-transfected HEK293 cells treated with 100 ng/ml PTX at 37° C. for 30 min; for desensitization of the receptor to subsequent stimulation with TARC, C27 or C19 (chemotaxis): HEK293/CCR4, pretreatment TARC or 2 μg/ml C27 or C19, 37° C., 30 min
T1 construct: The cDNA fragments covering the open reading frames for various chemokine receptors were obtained as follows; expressed in transfected cells; host or cells: HEK293 (transient, electroporation)
T1 sequence (P51679 1-360): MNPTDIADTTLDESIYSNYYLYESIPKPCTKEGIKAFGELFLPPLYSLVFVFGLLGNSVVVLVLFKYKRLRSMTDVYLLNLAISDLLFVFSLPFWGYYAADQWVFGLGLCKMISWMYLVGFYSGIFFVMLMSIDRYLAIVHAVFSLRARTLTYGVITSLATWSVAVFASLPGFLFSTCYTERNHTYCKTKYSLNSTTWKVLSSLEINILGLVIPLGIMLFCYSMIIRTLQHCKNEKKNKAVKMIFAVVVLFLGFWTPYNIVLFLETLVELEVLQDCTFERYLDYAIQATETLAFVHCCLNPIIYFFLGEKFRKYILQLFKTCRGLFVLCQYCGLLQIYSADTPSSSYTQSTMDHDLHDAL
Method: (§1) HEK293 cells were grown in RPMI 1640 supplemented with 10% heat-inactivated FBS, penicillin (100 U/ml) and streptomycin (100 μg/ml). Every 4×10^6 HEK293 cells in 400 μl were transiently transfected by electroporation with 15 μg of the expression plasmid at 120 V, 20 ms using an electric pulse generator (Electro Square Porator ECM 830, BTX, San Diego, Calif.), and calcium mobilization assay and chemotaxis assays were performed 48 hours later.
(§2) The chemotaxis assay was performed using a 48-well microchemotaxis chamber (Neutroprobe; Cabin John, Md., U.S.A.). Chemoattractants were diluted in HEPES-buffered RPMI 1640 medium supplemented with 0.1% BSA and placed in the lower wells (28 μl/well). HEK293 cells transfected with pcDI-CCR4, -CCR5 were resuspended in the same medium at 2×10^6 cells/ml and added to the upper wells (50 μl/well), which were separated from the lower wells by a polyvinylpyrrolidone-free polycarbonate filter with 8-μm pores. The chamber was incubated for 2 hours at 37° C. in 5% CO2 and 95% air. Filters were removed from the chamber, washed, fixed, and stained with Three Step Stain Set. Cells that migrated were counted in 5 randomly selected high power fields (400×) per well. The chemotactic index (CI) was calculated from the number of cells that migrated to the control. Significant chemotaxis was defined as CI>2. In some experiments, cells were pretreated with TARC, RANTES, purified CKLF-myc protein or secreted CKLF1 peptides for 30 min. at 37° C., or 100 ng/ml PTX (ALEXIS Biochemicals Corporation) for 6 hours at 37° C. prior to subsequent stimulations.

[2] = tested on: OVA-sensitized murine asthma model; assay: OVA-sensitized murine asthma model; assay type: in vivo, C57BL/6 mice; conditions: for airway hyperreactivity: OVA-sensitized and challenged mice, i.p. pretreatment
Method: C57BL/6 mice (20-25 g) of either sex were sensitized by an i.p. injection (100 μl) of 20 μg chicken OVA (Sigma-Aldrich, St. Louis, Mo.) emulsified in Imject alum (2.25 mg Al(OH)3/2 mg Mg(OH)2) (Pierce, Rockfield, Ill.) on days 0 and 14. Mice were injected with 1, 10, or 100 μg of C27 or C19 i.p, and thirty minutes later, these mice were subsequently challenged with an aerosol generated from 1% OVA in saline (OVA), or saline alone, for 20 min by ultrasonic nebulization (DeVilbiss, Somerset, Pa.). This procedure was repeated daily on days 24, 25, and 26. The mice were assessed on day 28.

[3] = biological target: T1, CCR4; assay: Internalization of CCR4-EGFP in transiently transfected HEK293 cells; assay type: cell-based; conditions: HEK293 cells transfected with pCCR4-EGFP; 37° C., 2 hours
Method: The cDNA fragment covering the open reading frame for CCR4 chemokine receptor was cloned into pEGFP-N1 vector (CLONTECH). pCCR4-EGFP transiently expressing HEK293 cells were cultured in glass-bottom dishes in RPMI 1640 with 10% FBS. After 16 to 24 hours serum starvation, cells were treated with CKLF1 C-terminal peptides or TARC at 37° C. for 2 hours. Cells were washed with cold PBS and fixed with 2% paraformaldehyde in PBS. The subcellular localization of CCR4-EGFP protein was visualized using a Leica TCS-NT confocal fluorescence microscope with a 63× oil immersion lens (Wetzler, Heidelberg, Germany). The excitation and emission wavelengths were 488 and 515-540 nm, respectively.

[4] = biological target: T2, CCR5 (Homo sapiens, UniProt P51681); assay: Chemotaxis assay (48-well microchemotaxis chamber) of HEK293 cells transfected with CCR5; assay type: cell-based; conditions: for chemotaxis induced after PTX pretreatment: CCR5-transfected HEK293 cells treated with 100 ng/ml PTX at 37° C. for 30 min; for desensitization of the receptor to subsequent stimulation with RANTES, C27 or C19 (chemotaxis): HEK293/CCR5, pretreatment 1 mM RANTES or 2 μg/ml C27 or C19, 37° C., 30 min
T2 construct: The cDNA fragments covering the open reading frames for various chemokine receptors were obtained as follows; expressed in transfected cells; host or cells: HEK293 (transient, electroporation)
T2 sequence (P51681 whole entry, the tested form may be a part): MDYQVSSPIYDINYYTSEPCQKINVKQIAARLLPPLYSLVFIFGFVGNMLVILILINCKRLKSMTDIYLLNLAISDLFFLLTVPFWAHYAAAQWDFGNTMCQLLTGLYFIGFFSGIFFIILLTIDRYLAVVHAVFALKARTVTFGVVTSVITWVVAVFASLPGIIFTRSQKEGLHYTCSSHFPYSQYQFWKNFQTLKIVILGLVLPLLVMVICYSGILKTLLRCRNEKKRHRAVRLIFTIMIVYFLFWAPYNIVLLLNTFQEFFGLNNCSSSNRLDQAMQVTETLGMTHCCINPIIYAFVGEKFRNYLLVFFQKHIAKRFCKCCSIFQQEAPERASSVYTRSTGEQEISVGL
Method: as §1
as §2, with “In some experiments, cells were pretreated with TARC, RANTES, purified CKLF-myc protein or secreted CKLF1 peptides for 30 min. at 37° C., or 100 ng/ml PTX (ALEXIS Biochemicals Corporation) for 6 hours at 37° C. prior to subsequent stimulations.” left out

Substance	chemotaxis induced after PTX pretreatment [1]	desensitization of the receptor to subsequent stimulation with TARC, C27 or C19 (chemotaxis) [1]	inhibition of eosinophil recruitment into the airways (BAL fluid analysis) ([2]; 1 μg/mouse i.p., vs positive control group)	inhibition of eosinophil recruitment into the airways (BAL fluid analysis) ([2]; 10 μg/mouse i.p., vs positive control group)	inhibition of eosinophil recruitment into the airways (BAL fluid analysis) ([2]; 100 μg/mouse i.p., vs positive control group)	airway hyperreactivity [2]	internalization of CCR4-EGFP [3]	chemotaxis induced after PTX pretreatment [4]	desensitization of the receptor to subsequent stimulation with RANTES, C27 or C19 (chemotaxis) [4]	migration (chemotaxis) of transfected cells ([1]; CCR4-transfected HEK293 cells)	inhibition of the eosinophil infiltration into the BAL fluid ([2]; doses ranging from 1 to 100 μg/mouse i.p., vs positive control group)	migration (chemotaxis) of transfected cells ([4]; CCR5-transfected HEK293 cells)
FNPSGPYQKKPVHEKKEVL (listed as Homo sapiens) [C19]	completely abolished by PTX	could desensitize the receptor	78%	69%	74%	significant decrease	could induce internalization of CCR4-EGFP	completely abolished by PTX	could desensitize the receptor			
ALIYRKL LFNPSGPYQKKPVHEKKEVL (ALIYRKLLFNPSGPYQKKPVHEKKEVL; listed as Homo sapiens) [C27]	completely abolished by PTX	could desensitize the receptor				small, but not statistically significant, increase	could induce internalization of CCR4-EGFP	completely abolished by PTX	could desensitize the receptor	could induce migration	did not demonstrate any inhibition	could induce migration
